Several values for one entry are separate records, joined by “and”; a condition that tells them apart may be missing. Equal entries are not always repeated.
Assays:
[1] = Stability in human plasma; type: in vitro ADME; details: single donor human plasma, 200 µM, 0-24 h at 37°C, methanol precipitation, HPLC C18, UV 220/280/325 nm
Description: Plasma proteins were precipitated by methanol (1:5 volume ratio of plasma to methanol) and centrifuged for 10 min at 13.4 rpm. The supernatant was collected and analyzed by HPLC using a Zorbax SB-C18 4.6 × 250 mm, 5 μm column with a gradient from 20% to 80% acetonitrile in water containing 0.05% TFA. Chromatograms were recorded at 220 nm, 280 nm and 325 nm.

[2] = pH-dependent insertion into POPC liposome bilayer monitored by CD; type: physicochemical; details: CD ellipticity vs pH, 7 µM agent, 1.4 mM POPC, 25°C, Henderson-Hasselbalch fit
Description: The interactions of pHLIP-mMSA and 2pHLIP-dMSA with liposomes were investigated by recording the construct’s fluorescence and circular dichroism (CD) using a PC1 spectrofluorometer (ISS) and a MOS-450 spectrometer (Bio-Logic Science Instruments), respectively, with temperature control set to 25°C. Liposomes, constituting of large unilamellar vesicles were prepared by extrusion. 1-palmitoyl-2-oleoyl-sn-glycero-3-phosphocholine (POPC) lipids (Avanti Polar Lipids) in chloroform were desolvated on a rotary evaporator and dried under vacuum for a minimum of 2 h. The phospholipid film was rehydrated in 2 mM citrate phosphate buffer, pH 7.4, vortexed, and passed through the extruder (using a 50 nm membrane pore size) 21 times.
Fluorescence spectra were recorded from 310 nm to 390 nm at an excitation wavelength of 295 nm and 1.0 mm sized slits. […] CD spectra were recorded from 190 to 260 nm with a step size of 1 nm. […]
The pH-dependent insertion of pHLIP-mMSA or 2pHLIP-dMSA into the lipid bilayer of POPC liposomes was studied by monitoring changes in the molar ellipticity as a function of pH. After the addition of aliquots of citric acid, the pHs of solutions containing pHLIP-mMSA/2pHLIP-dMSA and POPC liposomes were measured using an Orion PerHecT ROSS Combination pH Micro Electrode and an Orion Dual Star pH and ISE Benchtop Meter. […]

[3] = tested on: CT26 murine colorectal cancer tumors; experiment: Treatment of CT26 tumors in mice; type: in vivo, Balb/c mice; details: CT26 tumors 100-150 mm3, female Balb/c, followed 65 days
Description: For the treatment of CT26 tumors, 5 × 10^4 CT26 murine colorectal cancer cells (ATCC, CRL-2638) were injected subcutaneously (SQ) in 100 μL of growth medium into the right flank of female Balb/c mice ranging in age from 7 to 9 weeks (Envigo RMS, Inc.). […] The compounds were dissolved in DMSO as a stock solution and transferred to PBS (vehicle). The residual DMSO in the final solution injected into animals was less than 2%. Tumor volume and body weight were measured 3 times per week throughout the study. Measurements of tumors were performed using calipers, and the tumor volume (V) was calculated with the formula: V=0.52∙L∙W^2 where L is the length and W is the width of the measured tumor. Mice were removed from the study and euthanized when the tumor volume was greater than 2,000 mm^3.

[4] = Stability in mouse plasma; details: BALB/c mouse plasma, 200 µM, 0-24 h at 37°C, methanol precipitation, HPLC C18, UV 220/280/325 nm
Description: Plasma proteins were precipitated by methanol (1:5 volume ratio of plasma to methanol) and centrifuged for 10 min at […]. The supernatant was collected and analyzed by HPLC using a Zorbax SB-C18 4.6 × 250 mm, 5 μm column with a gradient from 20% to 80% acetonitrile in water containing 0.05% TFA. Chromatograms were recorded at 220 nm, 280 nm and 325 nm.

[5] = target: human serum albumin (HSA) (Homo sapiens, UniProt P02768)
Description: HSA was initially dissolved to 500 μM in deionized water and further diluted using pH 7.6 phosphate buffer. Dansylamide (DNSA) or dansylglycine (DNSG) (both from Tokyo Chemical Industry) were used as fluorescent markers, which are known to bind to specific sites on HSA. Each well contained 100 μL of sample consisting of the fluorescent marker DNSA or DNSG (1 μM), with different concentrations of pHLIP agents (0, 5, or 10 μM) and concentrations of HSA ranging from 0 μM to 100 μM. Samples were incubated for 2 h at 37°C. […] Fluorescence measurements from each well were performed at 485 nm with excitation at 365 nm at 37°C. As a control, binding of DNSA and DNSG were probed with each agent in absence of HSA. Before the measurements a plate reader optimization test was run. Data were fitted individually and globally using the Michaelis-Menten equation. […] Data was fitted by nonlinear least squares curve fitting procedures employing the Levenberg Marquardt algorithm using Origin 8.5.
Table S1. Competitive binding assay.
Figure S8. HSA binding. […] The global fitting was performed with each set of data and the fitting curves are shown as black, blue and red lines.

ADQDNPWRAYLDLLFPTDTLLLDLLWCG [2pHLIP-dMSA]
stability in human plasma (in words) [1]: very high
cooperativity (n) of insertion into POPC bilayer [2]: 1.2
pK (mid-point) of insertion into POPC bilayer [2]: 6.0
mice survived out of treated, lower dose ([3]; two IP injections of 100 µM 500 µL (l.d.) on days 1 and 3): 4 out of 10 and 4/10
mice with tumor eradicated / survived out of treated ([3]; two IP injections of 300 µM 500 µL on days 1 and 3): 7/10
stability in mouse plasma (in words) [4]: low
binding to HSA (in words) [5]: strong binding

From PMC10940318, “Targeted intracellular delivery of dimeric STINGa by two pHLIP peptides for treatment of solid tumors” (Frontiers in Pharmacology, 2024)
